Results taken from the Immune Epitope Database (IEDB).

Assays:
HLA-B*40:01 = assay: IEDB peptide-MHC binding, purified MHC/competitive/fluorescence; filed as Kd, often an IC50 or EC50 that approximates it; ≥ and ≤ were set here for values at or beyond the usual limits of such assays
HLA-B*08:01 = assay: as above; settings: source organism: Shigella flexneri 5 str. 8401
HLA-B*51:01 = assay: as above
HLA-B*35:01 = assay: as above
HLA-A*24:03 = assay: as above; settings: source organism: Homo sapiens
HLA-A*68:02 = assay: as above; settings: source organism: Homo sapiens
HLA-A*02:19 = assay: as above; settings: source organism: Homo sapiens
HLA-B*15:01 [1] = assay: as above; settings: source organism: Homo sapiens
HLA-A*02:16 = assay: as above; settings: source organism: Homo sapiens
HLA-A*02:01 = assay: as above; settings: source organism: Homo sapiens
HLA-B*15:17 = assay: as above; settings: source organism: Homo sapiens
HLA-A*02:12 = assay: as above; settings: source organism: Homo sapiens
HLA-A*02:11 = assay: as above; settings: source organism: Homo sapiens
HLA-A*02:03 = assay: as above; settings: source organism: Homo sapiens
HLA-B*39:01 = assay: as above; settings: source organism: Homo sapiens
HLA-A*29:02 = assay: as above; settings: source organism: Homo sapiens
HLA-A*69:01 = assay: as above; settings: source organism: Homo sapiens
HLA-A*26:01 = assay: as above; settings: source organism: Homo sapiens
HLA-B*27:03 = assay: as above; settings: source organism: Homo sapiens
HLA-B*46:01 = assay: as above; settings: source organism: Homo sapiens
HLA-A*03:01 = assay: as above; settings: source organism: Homo sapiens
HLA-A*01:01 = assay: as above; settings: source organism: Homo sapiens
HLA-B*07:02 = assay: as above; settings: source organism: Salmonella enterica subsp. enterica serovar Typhi
HLA-B*15:01 [2] = assay: IEDB peptide-MHC binding, purified MHC/direct/fluorescence; filed as Kd, often an IC50 or EC50 that approximates it; ≥ and ≤ were set here for values at or beyond the usual limits of such assays; settings: source organism: Mycobacterium tuberculosis variant bovis
[3] = source organism: Shigella flexneri 5 str. 8401

Sequence: EEISSIISL
- Kd (HLA-B*40:01; source organism: Bacillus anthracis str. A2012): 0.0023 µM

Sequence: LPRRLQLLF
- Kd (HLA-B*08:01): 4 µM
- Kd (HLA-B*51:01; [3]): 2.64 µM
- Kd (HLA-B*35:01; [3]): 0.0029 µM

Sequence: SSDLRSWTF
- Kd (HLA-A*24:03): ≥ 20 µM
- Kd (HLA-A*68:02): ≥ 20 µM
- Kd (HLA-A*02:19): ≥ 20 µM
- Kd (HLA-B*51:01; source organism: Homo sapiens): ≥ 20 µM
- Kd (HLA-B*15:01 [1]): ≥ 20 µM
- Kd (HLA-A*02:16): ≥ 20 µM
- Kd (HLA-A*02:01): ≥ 20 µM
- Kd (HLA-B*15:17): ≥ 20 µM
- Kd (HLA-A*02:12): ≥ 20 µM
- Kd (HLA-A*02:11): ≥ 20 µM
- Kd (HLA-A*02:03): ≥ 20 µM
- Kd (HLA-B*39:01): ≥ 20 µM
- Kd (HLA-A*29:02): ≥ 20 µM
- Kd (HLA-A*69:01): ≥ 20 µM
- Kd (HLA-A*26:01): ≥ 20 µM
- Kd (HLA-B*27:03): ≥ 20 µM
- Kd (HLA-B*46:01): ≥ 20 µM
- Kd (HLA-A*03:01): ≥ 20 µM
- Kd (HLA-A*01:01): 0.538 µM

Sequence: LPSWLLAPV
- Kd (HLA-B*07:02): 0.066 µM

Sequence: ELNITSATY
- Kd (HLA-B*35:01; source organism: Mycobacterium tuberculosis variant bovis): 0.0182 µM
- Kd (HLA-B*15:01 [2]): 0.459 µM

Sequence: QATAQAAAY
- Kd (HLA-B*35:01; source organism: Mycobacterium tuberculosis C): 0.0145 µM
- Kd (HLA-B*15:01 [2]): 6.05 µM

Sequence: REWSGLNYL
- Kd (HLA-B*40:01; source organism: Salmonella enterica subsp. enterica serovar Typhi): 0.0033 µM
